The values below come from paper PMC7064499.

In this assay the target is FliPQR complex, V. mimicus (FliP5Q4R1) (Vibrio mimicus (strain DSM 19130)). The assay can be described thus: cryo-EM structure.

As to FlhB, V. mimicus (natural protein), the stoichiometry N came out at 1.

By stoichiometry N is commonly meant a count of units in the complex or per binding partner.
